Test results reported in US5264366A, “Protease deficient bacillus” (Genencor, Inc., priority 1991, dated 1993).
Changes are numbered by the printed parent chain. In names and notes the source's numbering stands. *1 amine or outer side, *2 acyl side, *3 side chain or, on linkers, in order; H or OH if unused. Where a SMILES comes first, the peptide text is derived from it. The star is where a group is joined. pNA = O=[N+]([O-])c1ccc(N*)cc1; Suc = O=C(CCC(=O)[*:2])[*:1]

B1: B. amyloliquefaciens subtilisin, wild type (gly-166) (Bacillus amyloliquefaciens) (protein)
chain: AQSVPYGVSQIKAPALHSQGYTGSNVKVAVIDSGIDSSHPDLKVAGGASMVPSETNPFQDNNSHGTHVAGTVAALNNSIGVLGVAPSASLYAVKVLGADGSGQYSWIINGIEWAIANNMDVINMSLGGPSGSAALKAAVDKAVASGVVVVAAAGNEGTSGSSSTVGYPGKYPSVIAVGAVDSSNQRASFSSVGPELDVMAPGVSIQSTLPGNKYGAYNGTSMASPHVAGAAALILSKHPNWTNTQVRSSLENTTTKLGDSFYYGKGLINVQAAAQ
notes: codons for the mature subtilisin corresponding to that secreted by the B. amyloliquefaciens; made in house; host or cells: Bacillus subtilis BG2036 (protease deficient), plasmid pS4-5
B2: B. amyloliquefaciens subtilisin variant glu + 166 (E166, glycine+166 substituted) (Bacillus amyloliquefaciens; G273E) (protein)
chain: B1 chain with G166E
notes: codons for the mature subtilisin corresponding to that secreted by the B. amyloliquefaciens; made in house; host or cells: Bacillus subtilis BG2036 (protease deficient)
B3: B. amyloliquefaciens subtilisin variant asn + 166 (glycine+166 substituted) (Bacillus amyloliquefaciens; G273N) (protein)
chain: B1 chain with G166N
notes: as for B2
B4: B. amyloliquefaciens subtilisin variant asp + 166 (D166, glycine+166 substituted) (Bacillus amyloliquefaciens; G273D) (protein)
chain: B1 chain with G166D
notes: as for B2
B5: B. amyloliquefaciens subtilisin variant ala + 166 (A166, glycine+166 substituted) (Bacillus amyloliquefaciens; G273A) (protein)
chain: B1 chain with G166A
notes: as for B2
B6: B. amyloliquefaciens subtilisin variant arg + 166 (glycine+166 substituted) (Bacillus amyloliquefaciens; G273R) (protein)
chain: B1 chain with G166R
notes: as for B2
B7: B. amyloliquefaciens subtilisin variant phe + 166 (glycine+166 substituted) (Bacillus amyloliquefaciens; G273F) (protein)
chain: B1 chain with G166F
notes: as for B2
B8: B. amyloliquefaciens subtilisin variant lys + 166 (glycine+166 substituted) (Bacillus amyloliquefaciens; G273K) (protein)
chain: B1 chain with G166K
notes: as for B2
B9: B. amyloliquefaciens subtilisin variant hys + 166 (glycine+166 substituted) (Bacillus amyloliquefaciens; G273H) (protein)
chain: B1 chain with G166H
notes: as for B2

biological target: T1, B. amyloliquefaciens subtilisin, wild type (gly-166) (Bacillus amyloliquefaciens, UniProt P00782); assay: Kinetic parameters from progress curves, p-nitroanilide substrates; type: biochemical; details: 25° C., 0.1M tris buffer, pH 8.6
T1 construct: codons for the mature subtilisin corresponding to that secreted by the B. amyloliquefaciens; made in house; host or cells: Bacillus subtilis BG2036 (protease deficient), plasmid pS4-5
T1 sequence (P00782 108-382): B1 chain
Method: (§1) B. subtilis strain BG2036 obtained by the method of Example 11 was transformed by the plasmids of Examples 14, 15 or 20 and by pS4-5 as a control. Transformants were plated or cultured in shaker flasks for 16 to 48 h at 37° C. in LB media plus 12.5 μg/ml chloramphenicol. Mutant enzymatically active subtilisin was recovered by dialyzing cell broth against 0.01M sodium phosphate buffer, pH 6.2. The dialyzed broth was then titrated to pH 6.2 with 1N HCl and loaded on a 2.5×2 cm column of CM cellulose (CM-52 Whatman). After washing with 0.01M sodium phosphate, pH 6.2, the subtilisins (except mutants at position +222) were eluted with the same buffer made 0.08N in NaCl. The mutant subtilisins at position +222 were each eluted with 0.1M sodium phosphate, pH 7.0. The purified mutant and wild type enzymes were then used in studies of oxidation stability, Km, Kcat, Kcat/Km ratio, pH optimum, and changes in substrate specificity.
(§2) Various mutants for glycine+166 were screened for modified Kcat, Km and Kcat/Km ratios. Kinetic parameters were obtained by analysis of the progress curves of the reactions. The rate of reaction was measured as a function of substrate concentration. Data was analyzed by fitting to the Michaelis-Menton equation using the non-linear regression algorithm of Marquardt (Marquardt, D. W. 1963, "J. Soc. Ind. Appl. Math." 11, 431-41).

Molecule	Kcat
C[C@H](NC(=O)CCC(=O)O)C(=O)N[C@@H](C)C(=O)N1CCC[C@H]1C(=O)N[C@@H](Cc1ccccc1)C(=O)Nc1ccc([N+](=O)[O-])cc1 [sAAPFpN, succinyl-L-Alanyl-L-Alanyl-L-Prolyl-L-Phenylalanyl-p-nitroanilide] (Suc-AAPF-pNA)	37 s⁻¹

substrate: CC(C)[C@H](NC(=O)c1ccccc1)C(=O)NCC(=O)N[C@@H](CCCNC(=N)N)C(=O)Nc1ccc([N+](=O)[O-])cc1; assay: as above; type: biochemical; details: other: 25° C., 0.1M tris buffer, pH 8.6
Method: as §1, §2

Molecule	Km	kcat
B1	1100 µM	2 s⁻¹

substrate: CC(C)[C@H](NC(=O)c1ccccc1)C(=O)NCC(=O)N[C@@H](CCCNC(=N)N)C(=O)Nc1ccc([N+](=O)[O-])cc1; assay: as above; type: biochemical, B. amyloliquefaciens; details: other: 25° C., 0.1M tris buffer, pH 8.6; remark: another data set of the same source
Method: (§3) The procedure of Examples 13-14 was followed in substantial detail, except that the mutagenesis primer differed (the 37 mer shown in FIG. 13 was used), the two restriction enzymes were SacI and XmaIII rather than PstI and KpnI and the resulting constructions differed, as shown in FIG. 13.
as §1, §2

Molecule	Km	kcat
B2	27 µM	2 s⁻¹
B3	120 µM	1 s⁻¹
B4	41 µM	2 s⁻¹

substrate: C[C@H](NC(=O)CCC(=O)O)C(=O)N[C@@H](C)C(=O)N1CCC[C@H]1C(=O)N[C@@H](Cc1ccccc1)C(=O)Nc1ccc([N+](=O)[O-])cc1; assay: as above; type: biochemical, B. amyloliquefaciens; details: other: 25° C., 0.1M tris buffer, pH 8.6
Method: as §3, §1, §2

Molecule	Km	kcat
B5	27 µM	19 s⁻¹
B6	62 µM	19 s⁻¹
B2	340 µM	11 s⁻¹
B3	140 µM	26 s⁻¹
B7	14 µM	3 s⁻¹
B8	34 µM	15 s⁻¹
B4	580 µM	3 s⁻¹
B9	110 µM	15 s⁻¹
